Measured values reported in article PMC2141644 (The Journal of Cell Biology, 1997).

Target: F-actin (actin filaments) from rabbit skeletal muscle (rabbit, UniProt P68135 1-377)
Test: co-sedimentation

B1: GST-dem (GST fused to abLIM amino acids 585-778) (domain or fragment)
chain: RSSGREEDDEELLRRRQLQEEQLMKLNSGLGQLILKEEMEKESRERSSLLASRYDSPINSASHIPSSKTASLPGYGRNGLHRPVSTDFAQYNSYGDVSGGVRDYQTLPDGHMPAMRMDRGVSMPNMLEPKIFPYEMLMVTNRGRNKILREVDRTRLERHLAPEVFREIFGMSIQEFDRLPLWRRNDMKKKAKLF
- Kd: ~2600 nM
- stoichiometry N: ~1.1 actin molecules per GST–abLIM monomer
